Entries after “also recorded” stand apart in the source; their conditions may differ.
Columns and labels:
[1] = system: human embryonal kidney cell line 293; assay: FACS analysis of geranylgeraniol-induced apoptosis in 293 cells transfected with various genes; assay type: cell-based; conditions: 293 cells constitutively expressing the gene from pCEP4; 10 μM geranylgeraniol; propidium iodide FACS
Protocol: FIG. 4 depicts inhibition of apoptosis by human kd312 as compared to other proteins (as indicated). Shown graphs are the results from FACS analysis of apoptosis induced by geranylgeraniol in 293 cells transfected with various genes. Cells were treated with 10 μM geranylgeraniol for various times as indicated. Subsequently, the cells were washed and stained with 50 μg/ml propidium iodide in 3.8 mM sodium citrate pH 7.0 and analyzed using a FACScan flow cytometer. The extent of apoptosis was determined by measuring the proportion of cells displaying hypo-diploid DNA content. The data represent the average of 2 independent experiments.
(§1) Transfections of 293 cells with the plasmid pCEP4 or its derivatives were performed by using LipofectAMINE Reagent and the protocol supplied with it by Gibco BRL. Transfected cells were grown in Gibco BRL D-MEM high-glucose medium that lacked sodium pyruvate and was supplemented with 10% FBS and 300 μg/ml hygromycin. Fluorescence-activated cell sorting (FACS) for apoptosis assays was performed according to Polverino and Patterson, J. Biol. Chem. 272, No. 11: 7013-7021 (1997).
(§2) Involvement of kd312 in apoptosis was tested in the human embryonal kidney cell line 293 following expression of this gene from the episomal expression vector pCEP4. Derivatives of 293 cells constitutively expressing human kd312, bcl-2, R-ras, and murine H-ras genes from pCEP4 were established. Expression of each gene was confirmed by Western blotting experiments (data not shown). […] It has been shown that R-ras promotes apoptosis following expression in 32, D3, FL5.12, and NIH3T3 cells. […] The levels of inhibition following expression of the ras genes, particularly R-ras, were unmistakably lower than those resulting from the expression of kd312.

293 cells = assay: Establishment of 293 cell lines constitutively expressing genes from pCEP4; assay type: cell-based, human; conditions: no stable cell line could be established
Protocol: as §1, §2

H-Ras = target: T1, H-Ras (Homo sapiens, UniProt P01112); assay: Yeast two-hybrid interaction test; assay type: binding; conditions: yeast two-hybrid system
T1 construct: expressed in transfected cells
From the text: (§3) To define the way that kd312 exerts its function we have tested its interaction with human Raf, H-Ras, and bcl-2 using a yeast two-hybrid system. […] Work is in progress to search for kd312 interacting proteins using the same yeast system.

human Raf = target: T2, human Raf (Homo sapiens, UniProt P04049); assay: Yeast two-hybrid interaction test; assay type: binding; conditions: yeast two-hybrid system
T2 construct: expressed in transfected cells
From the text: as §3

bcl-2 = target: T3, bcl-2 (Homo sapiens, UniProt P10415); assay: Yeast two-hybrid interaction test; assay type: binding; conditions: yeast two-hybrid system
T3 construct: expressed in transfected cells
From the text: as §3

T3 sequence (P10415 whole entry): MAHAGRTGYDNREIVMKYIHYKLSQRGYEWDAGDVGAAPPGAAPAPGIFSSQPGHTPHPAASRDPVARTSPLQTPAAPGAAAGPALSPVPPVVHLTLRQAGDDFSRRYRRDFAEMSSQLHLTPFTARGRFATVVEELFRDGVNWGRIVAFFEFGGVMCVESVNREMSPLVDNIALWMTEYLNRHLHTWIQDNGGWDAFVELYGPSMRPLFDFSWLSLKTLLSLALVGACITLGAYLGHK

## bcl-2: bcl-2 gene product, a potent apoptosis inhibitor, expressed from pCEP4 in 293 cells [reference compound]
[1]
  effect on geranylgeraniol-induced apoptosis (proportion of cells with hypo-diploid DNA content): protected 293 cells from geranylgeraniol-induced apoptosis

## bax: murine bax gene product; expression in 293 cells led to cell death
293 cells
  outcome of gene expression in 293 cells: invariably led to cell death

B1: R-ras: human R-ras gene product of the Ras family, expressed from pCEP4 in 293 cells (protein, UniProt P10301 1-215, looked up)
Ras-related protein R-Ras: MSSGAASGTGRGRPRGGGPGPGDPPPSETHKLVVVGGGGVGKSALTIQFIQSYFVSDYDPTIEDSYTKICSVDGIPARLDILDTAGQEEFGAMREQYMRAGHGFLLVFAINDRQSFNEVGKLFTQILRVKDRDDFPVVLVGNKADLESQRQVPRSEASAFGASHHVAYFEASAKLRLNVDEAFEQLVRAVRKYQEQELPPSPPSAPRKKGGGCPC
[1]
  effect on geranylgeraniol-induced apoptosis (proportion of cells with hypo-diploid DNA content): inhibited apoptosis

B2: kd312: human kd312 protein (281 amino acids), blood loss-induced, distantly related to the Ras family, expressed from cDNA (protein)
chain: MKLAAMIKKMCPSDSELSIPAKNCYRMVILGSSKVGKTAIVSRFLTGRFEDAYTPTIEDFHRKFYSIRGEVYQLDILDTSGNHPFPAMRRLSILTGDVFILVFSLDNRDSFEEVQRLRQQILDTKSCLKNKTKENVDVPLVICGNKGDRDFYREVDQREIEQLVGDDPQRCAYFEISAKKNSSLDQMFRALFAMAKLPSEMSPDLHRKVSVQYCDVLHKKALRNKKLLRAGSGGGGGDPGDAFGIVAPFARRPSVHSDLMYIREKASAGSQAKDKERCVIS
[1]
  effect on geranylgeraniol-induced apoptosis (proportion of cells with hypo-diploid DNA content): protects the cells from apoptosis; also recorded: protected 293 cells from geranylgeraniol-induced apoptosis; also recorded: protects 293 cells from chemical-induced apoptosis
H-Ras
  interaction with H-Ras: No interaction
Human Raf
  interaction with human Raf: No interaction
bcl-2
  interaction with bcl-2: No interaction

Reference: patent US6462177B1, “Mammalian blood loss-induced gene, kd312” (Amgen Inc., priority 1998, dated 2002)
